Reference: the nanobody polyreactivity screen of Harvey et al. (2022)

Assay: yeast display, Sf9 membrane polyspecificity reagent, FACS + sequencing; frameworks hold sequencing errors
Summary of the method: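 Polyreactivity labels are assigned by the sorting gate from which each nanobody was recovered. The gates were low and high (top ~1%), set on anti-HA fluorescence for expression and streptavidin fluorescence for reagent binding. Before sorting, galactose-induced (36–48 hours) yeast display cells were stained for 1 hour at 4 °C with 10% biotinylated, detergent-solubilized Sf9 membrane reagent.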

Sequence | polyreactivity (PSR sort gate)
QVQLVESGGGLVQAGGSLRLSCAASGSIFPGNAMGWYRQAPGKERELVAAIDFSGGSTYYADSVKGRFTISRDNAKNTVYLQMNSLKPEDTAVYYCAASVYPYYGYGYWGQGTQVTVSS | low polyreactivity
QVQLVESGGGLVQAGGSLRLSCAASGTFKWYAMGWYRQAPGKERELVAVISSSGGTTSYADSVKGRFTITRDNAKNTVYLQMNSLKPEDTAVYYCNRVWSTSMDYWGQGTQVTVSS | high polyreactivity
QVQLVESGGGLVQAGGSLRLSCAASGSTFVPNAMGWYRQAPGKERELVAAITSGGITNYADSVQGRFTISRDNAKNTVYLQMNSLKPEDTAVYYCAVLYYILAPGYDYWGQGTQVTVSS | low polyreactivity
QVQLVESGGGLVQAVGSLRLSCAASGSIFLLYDMGWYRPAPGKERELVAAITWSGGSTYYADSVKGRFTISRDNAKNTVYLQMNSLKPEDTAVYYCAADEPYPTAYEYWGQGTQVTVSS | low polyreactivity
QVQLVESGGGLVQAGGSLRLSCAASGIIFSNYAMGWYRQAPGKERELVAAITRSGGRTYYADSVKGRFTISRDNAKNTVYLQMNSLKPEDTAVYYCAATGRSGVLSSYYYWGQGTQVTVSS | high polyreactivity
QVQLVESGGGLVQAGGSLRLSCADSGLIFYRYAMGWYRQAPGTERELVAAISGSVGSTYADSVKGRFTISRDNAKNTVYLQMNSLKPEDTVVYYCSRETYRSYGAYDYWGLGTQVTVSS | low polyreactivity
QVQLVESGGGLVQAGGSLRLSCAASGSTFDKNAMGWYRQEPGKERELVAAINNGGGTTYYADSVKGRFTISRDNAKNTVYLQMNSLKPEDTAVYYCAAVGKAYWSDYQYRYYYWGQGTQVTVSS | low polyreactivity
QVQLVESGGGLVQAGGSLRLSCAASGRIFSTNAMGWYRQAPAKERELVAAITRGVSTKYADSVKRRFTISRDNAKNTVYLQMNSLKPEDTAVYYCAASVVWGPESDYWGQGTQVTVSS | low polyreactivity
QVQLVESGGRLVQAGGSLRLRCAASGFIFLVNAMGWYRQARGKESELVAAITTSGASTYYADSVKGRFTISRDNAKNTVYLQMNSLKPEDTAVYYCAAGSYARPEYGYWGQGTQVTVSS | low polyreactivity
QVQLVESGGGLVQAGGSLRLSCASSGRNFQKYAMGWYRQAPGKERELVAAISSGDSTYADSVKGRFTISRDNAKNTVYFQMNSLKPEDTAVYYCAVDLYDPWWYSYIGEYEYWGQGTQVTVSS | low polyreactivity
QVQLVESGGGLVQTGGSLRLSCAASGRTFGYNAMGWYRQAPGKERELVASISYSGGSTYYADSVKGRFTISRDNAKNTVYLQMNSLKPEDTAVYYCAAKYWYWQSPSKYYYWGQGTQVTVSS | high polyreactivity
QGQLVESGGGLVQAGGSLRLSCAASGGIFTDYAMGWYRQAPGKERELVAAITRRGGRTYYADSVKGRFTISRDNAKNPVYLQMNSLKPEDTAVYYCAATRSGEYDYWGQGTQVTVSS | high polyreactivity
QVQLVESGGGLVQAGGSLRLSCAASGRTFRQYALGWYRQAPGKEWELVATISGGGGNTYYADSVKGRFTISRDNAKKTVYLQMNSLKPEDTAFYYCAARRRDRPVRGYDYWGQGTQVTVSS | high polyreactivity
QVHLVESGGGLVQAGGSLRLSCAASGSTFAANAMGWYRQAPGKERELVAAITSSGGSTYYADSVKGRFTISRDNAKNTVYLQMNSLKPEDTAVYYCKKDIERYFRIYDSWGQGTQVTVSS | low polyreactivity
QVQLVESGGGLVQAGGSLRLSCAASGSILVPYTMGWYRQAPGKERELVASISYSGGTTYYADSVKGRFTISRDNAKNTVYLQMNSLKPEDTAVYYCAADWDESYSYRRYRHYNYWGQGTQVTVSS | low polyreactivity
QVQLVESGGGLVQAGGSLRLSCAASGINFNYYAMGWYRQAPGKERELVAAISSTGSTYYSDSVKGRFTISRDNAKNTVYLQMNSLKPEDTAVYYCAAEWWDTGFANYGYDYWGQGTQVTVSS | high polyreactivity
QLQLVESGGGLVQAGGSLRLSCAASGFIFYLYAMGWYRQAPGKDRELVAAISWSGGITYYADSVKGRFTISRDNAKNTVYLQMNSLKPEDTAVNYCNAVGASASDGDSWGQGTQVTVSS | high polyreactivity
QVQLVESGGGLVQAGGSLLLSSAASGIIFNQYAMGWYRQAPGKERELVATISSGGARTYYADSVKWRFTISRDNAKNTVYLQMNSRKPEDTAVYFCNRRVPYSFYSRGYYYWGQGTQVTVSS | high polyreactivity
QVQLVESGGGLVQAGGSLRLSCAASGSIFYYNAMGWYRQEPGKERELVATITSAVSTNYADSVKGRFTISRDNAKNTVYLQMNSLKPEDTAVYYCATVYSLSFELDYWGQGTQVTVSS | low polyreactivity
QVQLVESGGGLVQAGGSLRLSCAASGRILSEYPMGWYRQARGKERELVAAITISDGSTYYADSVKGRFTISRDNAKNTVYLQMNSVNPDDTAVYYCAADSYDYNPAYLFCYKYYYWGQGSQVTVSS | low polyreactivity
QVQLVESGGGLVQAGGSLRLSCAASGSTFSFYDMGWYRQAPGKETELVDAITGSGGTTYYADSVKGRFTISRDNAKNTVYLKMNSLIPEDTAVYFCAADSLESYPDYEYDYWGQGTQVTVSS | low polyreactivity
QLQLVESGGVLDQAGRSLRLICAASVIIFRGYAKGRSRQAHGKERELVAAISRSGGRTYYADSVKGRFTISRDNAKKTVYLQRNSLKTEDTAVYYCAPQWLYLEYDYWGQGTQVTVSS | high polyreactivity

Sequence | polyreactivity (PSR sort gate)
QVQLVESGGGLVQAGGSLRLSCAASGLIFYYYAMGWYRQAPGKERELVADIDRGGDTYYADSVKGRFTISRDNAKNTVYLQMNSLKPEDTAVYYGAAVDFYGYVPEFGYWGQGTQVTVSS | low polyreactivity
QVQLVESGGGLVQAGGSLRLSCAASGLTFYYYAMGWYRQAPGKERQLVAAISRSGGSTYYADSVKGRFTISRDNAKNTVYLQMNSLKPEDTAVYYCAAREPYEGQRYYYEYYYWGQGTQVTVSS | high polyreactivity
QVQLQESGRRPGAAGGSPRMSCAASGNIFWVAVMGRYRQAPGKERELVASIGFGCTTYYADSVKCRFTISRDNAKNTVYLQMISLKPEDTAVYYCAAPHYDWGEIDYWGQGTQVPVSS | low polyreactivity
QVQLVESGGGLVQAGGRLRLSCAASGITFRSYAMGWYRQAPGKESELVAAIRSGGSTSYADSVKGRFTISRDNAKNTVYLQMNSLKPEDTAVYYCAAGGYVPLPDMTFWKFGYWGQGTQVTVSS | low polyreactivity
QVQLVESGGGLVQAGGSLRLSCAASGFIFAYNAMGWYRQAPGKERELVAAISRSGGSTRYADSVKGRFTISRDNAKNTVYLQMNSLKPEDTAVYYCAARSGSWGQGTQVTVSS | high polyreactivity
QVQLVESGGGLFQAGGSLRLSCAASGSTFGWYGMGWYRHAPGKERELVAAISLSDGGTYYADSVKGRFTISRDNAKNTVYLQMNSLKPEDTAVYYCAADYYDSGWYGYWGQGTQVTVSS | high polyreactivity
QVQLVESGGGLVQAGGSLRLSCAASGSIYYTYAMGWYRPAPGKERELVAAISKRGGSTYYADSVKGRFTISRDNAKNSVYLQMNSLKPEDTAVYYCAARYNAPRGGGSDDYWGQGTQVTVSS | high polyreactivity
QVQLVESGGGLVQAGGSLRISCAASGSTFKRNVMGWYRQAPGKERELVAAISRTDGRTYYADSVKGRFTISRDNAKNSVYLEMNSLKPEDTAVYYCAATTGHRTYRYYYWGHGTQVTVSS | high polyreactivity
QDQLVDSCGGLVQARGSLRLSCAASGSIFGDYAMGWYRQAPGKEWELVAAISDTDSTNDADSVKGRFTISRDNAKNTVYLQMNSLKREDTAVYSCNGDTWGYLLGYYYYKFAYCGQGTQVTVSS | low polyreactivity
QVQLVESGRGLVQAGGSLRLSCAASGRTFYYYTMGWYRQAPGKERELVAAISYSGGSTSYADSVKGRFTISRYNAKNTVYLQMNRLKPEDTAVYYCNAPYKYYTQRRYHYDYCGQGTQVTVSS | high polyreactivity
QVQLVESGGGLVQAGGSLRLSCAASGSNLTFYAMGWYRQAPGKERELVAAITWRGGSTYYADSVKGRFTISRDNAKNTVYLQMNSLKPEDTAVYYCAAEQVGYYLNWRDYWGQGTQVTVSS | high polyreactivity
QVQLVESGGGLVQAGGSLRLSCAASGRISIIYAMGWYRQAPGKERELVARISGSGGSTNYADSVKGRFTISRDNAKNTVYLQMISLKPEDTAVYYCAAVPWRIHKYYYWGQGTQVTVSS | high polyreactivity
QVQLVESGGGLVQAGGSLRLSCAASGSTFDIYPMGWYRQAPGKERELVAAISWSGGRTYYADSVKGRFTISRDNAKNTVYLQMNSLKPEDTAVYYCAAVNKSGTYVEYDYWGQGTQVTVSS | low polyreactivity
QVQLVESGGGLVQAGGSLRLSCAASGSTFSHYTMGWYRQAPGKERELVAAITRSGGSTYYADSVKARFTISRDNAKNNVYLQMTSLNPEDSAVYYCAATRQWNILRYDYWGQGTLVTVSS | low polyreactivity
QVQLVESGGGLVQAGGSLRLSCAASGSIFDLYAMGWYRQAPGTERELVADISIADSTNYADSVKGRFTISRDNAKNTVYLQMNSLKPEDTAVYYCNADVWWYSYEYDYWGQGTQVTVSS | low polyreactivity
QVQLVESGGGLVQAGGSLRLSCAPSGRTFGVYAMGWYRQAPGKERELVATISFNVASTYADSVKGRFTISRDNAKNTVYLQMNSLKPEDTAVYYCAVTAVRPLPLDSGYDYWGQGTQVTVSS | low polyreactivity
QVQLVESGGGLVQAGGSLRLSCASSGRIFGYYVRGWYRQAPGTERELVATISRVGTTNYADSVKGRFTISRDNAKNSVYLPMNSLKPEDTAVYYCNADYTGHRGGNDYWGQGTQVTVSS | low polyreactivity
QVQLVESVGGLDQAGGTLRLSCAASALIFAYYAMGGYRQAPGKERELVAAITSSGTSTYYADSVKGRFTISRDNAKNTVYLQMNSLTPEDTAVYYCAASDRRLTGVGADEYWGQGTQVTVSS | high polyreactivity
QVQLVESGGGLVQAGGSLRLSCAASGSIFGANTMGWYRQAPGKERELVAAISSGGNTYYADSVKGRFTISRDNAKNTVYLQMNSLKPEDTAVYYCAVGAYWYFGFVSYGYDYCGQGTQVTVSS | low polyreactivity
QVQLVESGGGLVQAGGSLRLTWAASGSIFTYYTRGWYRQAPGKERELVATIRYTGGNTYYADSVKGRFTISRDNAKNTVYLQMNILKPEDTAVYYCATGYSYRNVPTFRWLYYWGQGTQVTVSS | low polyreactivity
QVQLVESGGGLVQAGGSLRLSCDAYGSIFRLYAMGWFRQAPGKEREFVAAIDKRGGRTHYADSVKGRFTISRDNAKNTVYLQITSLKPEDTAVYYCAAKAYVVTNGHGKLDYWGQGPQVTVSS | high polyreactivity
